According to the DeepSol protein solubility set:

Test: soluble on expression in E. coli; label from the status in PepcDB or PDB records
For “GSHHHHHHSSGLVPRGSFNELNAINENIRDDLSALLKSDFFKYFRLDLYKQCSFWDANDGLCLNRACSVDVVEDWDTLPEYWQPEILGSFNNDTMKEADDSDDECKFLDQLCQTSKKPVDIEDTINYCDVNDFNGKNAVLIDLTANPERFTGYGGKQAGQIWSTIYQDNCFTIGETGESLAKDAFYRLVSGFHASIGTHLSKEYLNTKTGKWEPNLDLFMARIGNFPDRVTNMYFNYAVVAKALWKIQPYLPEFSFCDLVNKEIKNKMDNVISQLDTKIFNEDLVFANDLSLTLKDEFRSRFKNVTKIMDCVQCDRCRLWGKIQTTGYATALKILFEINDADEFTKQHIVGKLTKYELIALLQTFGRLSESIESVNMFEKMYGKRLLER”, the “soluble on expression in E. coli” value was “soluble”.
In the case of “MYTPVSKSTKSNKNRSSLDKILDAKKPVNLLILGTDTGAEGRSVKNYHGLTDLMMFVTVNPSKKQTRVTTIARDSKVNLPDYPEVSPIKLNSAYSLGGVSETIKTLDKYYSVPIDGYVLVNWASTMKIITKMGGVDVISPLTFDNMGYSFKKGQMYHISGKKALAFVQLRHGDPRQDYGRQERERLVMMAAIKKSVSYKTILNSSFMQSLGDSMQTDLSLNDMIKLAMNYQGVTDNVKSDYAQGKSSSVNNLEHHHHHH”, the “soluble on expression in E. coli” value is reported as “soluble”.
For “MGSDKIHHHHHHMLLKSPDKSPEKILKLFDEVYSKARIFYLLRTAIDLNLFEYLSSFKTAKELAEILDADLILMEYMLKILNELDLIESKVVSERIYYKNAEITNIYLKKDSNYSIINPIYSYFENIKNWENLADILKNKSNCSNMDVDNFFPKVVRRMADECKCWELQKVLNYMAKYEEFKNAKKLLDLAGGHGLYAIGFSMLNRNLKCYVFDLPNVIEETKKFIKKYNAKNVFTITGDFYKDDIGKGYDIIFCSYNPGGKNPKIAEKVYNALNEGGLFINKQFFPDKEEGIEDYINNMEWNFSKPEGLKKGKIRYTFEGDLNLNDYLKYLEDLGFKILEVVDMSELLGLDENSSSFRKSANPSDSLRFKDNSPAKMIVAKKL”, the “soluble on expression in E. coli” value was “not soluble”.
With “SRMRRYKSYFDWFDRQELHSMFQIAVPSVLQQSTVSIGMMIVQAVVNPFGTQALAGYAATMRVENVFSLIFVSIGNAVSPYVSQNLGANKPQRIKKGYRAA” the “soluble on expression in E. coli” value was “not soluble”.
With “RQPEVRGGDTLNVFLAYVPEDAKAMMTTPFEAYLVNDSNYYLYYTYLSAEGKAWNNRSHGLVEPNTKLLLEEFTKDVLNEMERVAVQLIAFKDGKPAAIKPAVSVELRIDTVKFYKLHTFSASDFFEEPALIYDIVKDDVPAKQVYV” the “soluble on expression in E. coli” value was “soluble”.
In the case of “MAHHHHHHMSGAGRKHRAKHLTQQYLDASGWVGPKEGERLAICMESPHGQHVRVLLLVHPNSAPASSSTEAPAPDGSSSSDAPHGAKESEAGVSASPPSAAPLLEVEQVVHLPRKFHKVIWLSIKDVVVIADGTVSFKPSPEQVESFLKDPRNKGWRERVATAQHRAEDQRAALQRMPHYAATAQTTTSVLTGPQVRSGVRATANGTSEQDSEGSEGEADDMRNPNWRNIKHQQHFFYGLGDDSDEIEEEEDA”, the “soluble on expression in E. coli” value is reported as “not soluble”.
In the case of “MSDVLITLSVELEDRPGQLLKVLQPISGMGGNIVGIVHQRGKKTPLNRLPVEISFKMDSEKVQKLIDELKSLGIIIRSFNEVRLTATTSVLLIGHLIHTDISDTISSIDVDGEAECVEMHVSMPEISGPSTAIITISASGKEKLKEAVEKLKEVCRKKEIILIEPVNEELV”, the “soluble on expression in E. coli” value is reported as “not soluble”.
In the case of “MSLPRLDARLKLVAAEIRGKIHADIGSDHGHLLAALLSADRIERGIAVENKLQPYRNSSATLERLNAEVRLGEGMDVIEENEIDSLSICGMGGQSIVRILSEHPNRLPKQLVLQPNQAIASVRQWARDNGYWLTDEKCTGTKRRFEVLVFSRFGPPHDPVYQKLNEVGLDESMGLMFGPWFLLRKDERLLQRLAEEQRYLQSKQNLTQTSRARVETIRRLLSSDHFLSREGHHHHHH”, the “soluble on expression in E. coli” value is reported as “soluble”.
With “MKTIYIYKGSIPEDKKKGDNAIWVTEKKIIDALEKAANSNGESTQSNPKTIALQAAKKETKKSNKKESKTIGYTTTGYVNADGKHIFDTDRINNERFDRKIIIGATLETLDQSSTLQSGEAIVLPAPGKYKSSDQKTVMTAQGPKIIGIHANAKENEETQKFVNWF” the “soluble on expression in E. coli” value was “soluble”.
In the case of “MNIISQNTAFGGMQGVFSHQSETLKSEMTFAVYVPPKAIHEPCPVVWYLSGLTCTHANVMEKGEYRRMASELGLVVVCPDTSPRGNDVPDELTNWQMGKGAGFYLDATEEPWSEHYQMYSYVTEELPALIGQHFRADMSRQSIFGHSMGGHGAMTIALKNPERFKSCSAFAPIVAPSSADWSEPALEKYLGADRAAWRRYDACSLVEDGARFPEFLIDQGKADSFLEKGLRPWLFEEAIKGTDIGLTLRMHDRYDHSYYFISTFMDDHLKWHAERLG”, the “soluble on expression in E. coli” value is reported as “not soluble”.
For “MDIVLVGCKGFGKEHLRIYSKLGYDVSIVERDSNEAKRCSELFRVYKVYDNYEDALRSGSNIVDLVVPDGLHYEMGSLALKSKKHLLVEKPITPDIDSGISLIQQAEESKLKLMVAEQFYFDPSVNEAIRRINNGEIGKPHTVIVRHQSFRELKGWRNEKSMMGRGILIDEGTHYIDTLLNFGGRYRSLRSFVHRTWDFLGEDTAEAVFNFENGMHGLFFYSWNYPEYPLLPEFEIIGDAGSIYEDIGTKPTEPWDQRKRKTAYGDIIVNGKHIPVEPYDVIEREISGFLNAVEKDEPVPMPPDLALRDIITIDRIYKASSD”, the “soluble on expression in E. coli” value was “not soluble”.
With “MSLQLLAEIVTVHTKHPFIIARGGQSEYQVVWVRLIDADGAEGWGEASPSKYYGETADTVMVALQRFAPVLAGADAWSIEAIERELEKAMRWNAAARCAVSAALHDLAARRLGVPLWKMWGLDRQATPISSFTIGIAPDAATLRARVREAAHYPLLKIKLGSSWDREVLRIVREEAPKAQLRVDANAAWTAKQALGMLDVLNEVGVDMLEQPLPPQELAGLRFVRERSNIPVVADESCLVASDIPKLEGIVDGVNIKLAKCGSLREALRMIAVARAHGMRVMCGCMIETTLGIAAAAHFSPLLDDADLDGAALLSDDPFDGPGIPDGRVVLGDAPGLGVTRRAGNEGHHHHHH” the “soluble on expression in E. coli” value was “soluble”.
With “SNAMANFEDFLTLDLRIGTVTHAEEFKEARVPAIRLEIDFGELGMKQSSAQITKRYNPEDLIGQQIVAVVNFPPKRVAGFKSEVLVLGGVPEAGDVVLLQPNMELPNGTKIS” the “soluble on expression in E. coli” value was “soluble”.
For “MEGESVKLSSQTLIQAGDDEKNQRTITVNPAHMGKAFKVMNELRSKQLLCDVMIVAEDVEIEAHRVVLAACSPYFCAMFTGDMSESKAKKIEIKDVDGQTLSKLIDYIYTAEIEVTEENVQVLLPAASLLQLMDVRQNCCDFLQSQLHPTNCLGIRAFADVHTCTDLLQQANAYAEQHFPEVMLGEEFLSLSLDQVCSLISSDKLTVSSEEKVFEAVISWINYEKETRLEHMAKLMEHVRLPLLPRDYLVQTVEEEALIKNNNTCKDFLIEAMKYHLLPLDQRLLIKNPRTKPRTPVSLPK”, the “soluble on expression in E. coli” value was “soluble”.
In the case of “MGSDKIHHHHHHMWQAISRLLEEHHGTADIQEHRELPGGEIHPAWYVRYGEHDVFVKCDSREMLAKFTAEADQLHLLSRSNTVRVPKVYGVGSSRDYSFLLLQYLPVKPLDAHSAWCLGEQLARLHQWSDQPQFGLDFDNDLSTTPQPNSWQRRWATFFAEQRIGWQLQLAAEKGMHFGHIETLIARVDERLAGHQPQPSLLHGDLWPDNCANSQDGGYLFDPACYWGDRECDLAMLPRYPALPAQIYDGYQSVWPLDKDFIDRQPIYQIYYLLNRANLFGGKNIVEAQQLIERQLLS”, the “soluble on expression in E. coli” value is reported as “not soluble”.
In the case of “MSLTEHALSNARIVLEDDIILGSVLIRDGKIADISEGASKTGEDLEGDFLIPGLVELHTDHLEQHYSPRPGVIWDKIAAIQAHDAQVASSGITTVFDCLRLGSDEDGGFKKGEMREMADAIEAAADQNRLRADHLLHLRCEVASADVLEHFEDFETDPRVRLISLMDHSPGQRQFQSMDQYIFYYQKKRGLSDEAFAEFVRRRQAASAEYSAKHRDYLAASCAKRGITVASHDDATEAHVGEAIGHGVKLAEFPTSVEAAKASHSAGMSVLMGAPNIVRGKSHSGNIAARDLAEIGVLDVLSSDYVPFSLLFAPFLLADQVEAISLSEALRMVTATPARTVGLVDRGRIATGLRADLVRVHREDGVPVARSVWRQGKRVAEGHHHHHH”, the “soluble on expression in E. coli” value is reported as “not soluble”.
With “MGSDKIHHHHHHMKLLILGNHTCGNRGDSAIMRGLLDAIRQQAPEAEMDVMSRFPVSSAWLQGRPIIADPLYQLSQKQQAAAGLNGRVKKVLRRRFQHKILLSKVAQEGSLRNFAIAPEFAEFAQFIAQYDAVIQVGGSNYVDLYGLTHFEYPLCAFMANKPIYMVGHSVGPFQNPDFNQLANYVFGRTSALILRETVSRDLMTAAQIDTRKVEQGVDTAWLVERRHDEFVASYAVQHWLDVTARRKTVAITLRDLEPFDKRLGTTQQAYEQAFAQVVNRLIADGYQVLALSTCTSIDRYNRDDRMVALRMAKYVNDSENFHIAMDELNDVEIGKILASCVLTIGTRLHSAIISMNFGTPAIAINYEHKSAGIMQQLGLAELAIDIRHLLNGSLQSVVADTLNQLPALKAKVANAVTEERAKGFTMIKSVLDRIREAQ” the “soluble on expression in E. coli” value was “not soluble”.
In the case of “MNTANFSAQQLQAERLLLLPSYILLKEGLVQDQAILVENGIFQDIGTHVELTKKYPDIVPVKLQDQLIMPGMIDGHHHLTQSFAKSLAYGEPSEIFKRIWVPLESNLNEQFVYLCTKLAALESLRGGFTTVCDAGTRSEIGMQLMVRALEETGLRCVLSLICNDGRAHSTLELRQNILENAQIFIKSYKQHKNVHPSLAISIPEVASDDMLYEVSKLCANSNIIFQVHVNEHLASVERSIIQQGMRPLEHLAKVGALGPQTLIAHATMLTPSELLLLQRTDTAVSYNPVASQWKGNAVASAHLMHELNIRFALGTDATRADGFRLLDAAEATQKLIFGIPTGDCSTGGGWMWLDHATTAGAEAVGLSQLTGSISIGKQADFLIIDLDTPEFCTSQDITWDMVRLCQRDQIQAVFVGGRICLWQGWPLDWDAKELMCRMKVLTKKAIEASPIQKLHPTAEQHRQLHGQTSQQQSVHI”, the “soluble on expression in E. coli” value is reported as “not soluble”.
With “MSLEHLHELVGSVDVVLSDIWGVVHNGLESFPDACAALKTARDQGRTVVLITNAPRPADSVQRQLRKLDVPDDCYDAIVSSGDLTRIYVAEHPGQSIYWLGPDRDNSIYRGLDAVLTPLEKADYIICTGPFDDETESAEDYREMMGQALERKLTLVCANPDIVVERGDRLIYCAGAIAELYRELGGDVIFYGKPHRPIYDRAMALAREIRGVDTPVQRVLAIGDSVRTDLAGAQGYGIDLLFVTRGIHADAFEGIDRLDTAAVNELFGHPPLALTRELREGHHHHHH” the “soluble on expression in E. coli” value was “soluble”.
With “VTAHSIARRFGAPIETLARAADRIGEGDFDVTLPMTNVAEVGQLTRRFGLMAEALRQYRKTSVEEVLSGERRLQAVLDSIDDGLVIFDNQGRIEHANPVAIRQLFVSNDPHGKRIDEILSDVDVQEAVEKALLGEVQDEAMPDLVVDVAGESRLLAWSLYPVTHPGGHSVGAVLVVRDVTEQRAFERVRSEFVLRASHELRTPVTGMQMAFSLLRERLDFPAESREADLIQTVDEEMSRLVLLINDLLNFSRYQTGMQKLELASCDLVDLLTQAQQRFIPKGEARRVSLQLELGDELPRLQLDRLQIERVIDNLLENALRHSSEGGQIHLQARRQGDRVLIAVEDNGEGIPFSQQGRIFEPFVQVGRKKGGAGLGLALCKEIIQLHGGRIAVRSQPGQGARFYMLLP” the “soluble on expression in E. coli” value was “not soluble”.
For “MEALRSAPRAAHFLPMELQSSGERSPPREGAPVGTGATAGETPSAAPSGTPLWIPPRLATLDEVTLCHNIHRYRCFIEEGTALLPPLKTDVYCNGKTSSIATRLSVGAVVDAARRALSGSPAFAFCLVRPPGHHASADTPSGFCLVNNVAIAAMQLLQDWHVKYDCGVGGSRSVPSEERDIPERPRIAIVDIDVHHGEGTQSFVEVEPQLLYLSLHRYDRGSFYPCDPAGATSYVGQHRNICNVAVDTAATDPARCEEVISDMLFARVVDDVFLPRLEQFHPNIILLSLGFDAAHGDPLGRMAVEGGFAYVVRALKRFCLQSQGTIGLVAVLEGGYSPEGVSRGVVSVAHALCYPFDDVAVVNYARLRTPKTWMELRSRLSRRMEVRTDETGGATSLSSGLSSQGLGDATSTERAIAD”, the “soluble on expression in E. coli” value was “not soluble”.
